Measured values taken from article PMC2943896, “Additional Serine/Threonine Phosphorylation Reduces Binding Affinity but Preserves Interface Topography of Substrate Proteins to the c-Cbl TKB Domain” (PLoS ONE, 2010).
Where no end group is shown, it is not given here. [ ]: non-standard residue; d: D form. pY = N[C@@H](Cc1ccc(OP(=O)(O)O)cc1)C(=O)O; pT = C[C@@H](OP(=O)(O)O)[C@H](N)C(=O)O

Target: T1, c-Cbl TKB domain (UniProt P22681 25-351)
T1 construct: these are not the construct limits; source: cloning, expression and purification as described previously [14]; purified
T1 sequence: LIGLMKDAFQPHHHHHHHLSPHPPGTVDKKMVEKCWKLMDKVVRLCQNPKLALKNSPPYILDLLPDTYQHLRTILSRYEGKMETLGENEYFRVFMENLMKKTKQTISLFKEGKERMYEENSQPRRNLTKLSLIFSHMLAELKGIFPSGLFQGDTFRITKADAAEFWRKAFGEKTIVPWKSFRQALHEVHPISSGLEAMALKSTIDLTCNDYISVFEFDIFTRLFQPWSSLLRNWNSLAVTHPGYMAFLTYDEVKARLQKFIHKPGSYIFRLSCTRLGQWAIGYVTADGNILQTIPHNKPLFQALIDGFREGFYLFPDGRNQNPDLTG
Details: both partners purified

In the case of IRNTNE[pY]TEGPT (also called pSpry2; pSprouty2) [Tyr55 phosphorylated Spry2 peptide], the Kd is reported as 310 nM.

B1: pTyr55/pThr56 Spry2 peptide (peptide)
peptide: IRNTNE[pY][pT]EGPT
notes: Sprouty2 (Spry2), human; also called ppSpry2; pYpT-Spry2; source: synthetic peptide, bought: GL Biochem
B1 gave a Kd of 3830 nM.
